Consider one substance from US7323171.

The assay deals with CD2 on human T cells (human) (UniProt P06729). Kind of assay: cell-based or functional assay.
Chain of UniProt P06729 (P06729 25-351 limits assumed): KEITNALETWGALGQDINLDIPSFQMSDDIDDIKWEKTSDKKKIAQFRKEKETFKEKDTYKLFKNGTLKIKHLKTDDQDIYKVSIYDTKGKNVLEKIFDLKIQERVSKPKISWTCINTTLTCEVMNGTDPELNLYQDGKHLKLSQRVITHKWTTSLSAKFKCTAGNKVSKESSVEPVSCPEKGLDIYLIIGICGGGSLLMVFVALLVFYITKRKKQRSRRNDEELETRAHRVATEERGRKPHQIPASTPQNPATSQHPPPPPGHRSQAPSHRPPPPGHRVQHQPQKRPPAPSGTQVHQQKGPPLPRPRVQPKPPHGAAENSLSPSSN

anti-CD2 monoclonal antibody TS2/18: the inhibition of allogeneic T cell activation by normal skin cells ([3H]TdR incorporation), antibody at 50 µg/ml is 40% and the inhibition of autologous T cell proliferation ([3H]TdR incorporation) in response to lesional psoriatic epidermis, antibody at 50 µg/ml was found to be 60%.
